Laboratory results taken from publication doi:10.1101/2024.04.19.590371 (bioRxiv, 2024).

Experiments:
His+SUMO-atDjA2 = target: T1, His+SUMO-atDjA2 (Arabidopsis thaliana, UniProt P42825 1-419); experiment: pull-down
T1 sequence (looked up): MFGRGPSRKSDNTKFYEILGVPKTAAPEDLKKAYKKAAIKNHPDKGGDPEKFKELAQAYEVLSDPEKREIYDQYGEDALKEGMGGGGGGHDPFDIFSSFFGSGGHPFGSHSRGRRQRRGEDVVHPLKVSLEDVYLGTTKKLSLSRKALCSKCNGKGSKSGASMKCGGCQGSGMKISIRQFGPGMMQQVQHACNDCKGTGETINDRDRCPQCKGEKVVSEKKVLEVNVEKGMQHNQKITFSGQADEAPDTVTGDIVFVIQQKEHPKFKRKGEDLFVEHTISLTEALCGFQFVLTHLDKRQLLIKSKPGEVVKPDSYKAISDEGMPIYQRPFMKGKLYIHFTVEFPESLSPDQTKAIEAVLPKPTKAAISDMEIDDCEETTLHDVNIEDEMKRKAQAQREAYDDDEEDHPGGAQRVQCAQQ

His+SUMO-atDjA1 = target: T2, His+SUMO-atDjA1 (Arabidopsis thaliana, UniProt Q94AW8 1-420); experiment: pull-down
T2 sequence (looked up): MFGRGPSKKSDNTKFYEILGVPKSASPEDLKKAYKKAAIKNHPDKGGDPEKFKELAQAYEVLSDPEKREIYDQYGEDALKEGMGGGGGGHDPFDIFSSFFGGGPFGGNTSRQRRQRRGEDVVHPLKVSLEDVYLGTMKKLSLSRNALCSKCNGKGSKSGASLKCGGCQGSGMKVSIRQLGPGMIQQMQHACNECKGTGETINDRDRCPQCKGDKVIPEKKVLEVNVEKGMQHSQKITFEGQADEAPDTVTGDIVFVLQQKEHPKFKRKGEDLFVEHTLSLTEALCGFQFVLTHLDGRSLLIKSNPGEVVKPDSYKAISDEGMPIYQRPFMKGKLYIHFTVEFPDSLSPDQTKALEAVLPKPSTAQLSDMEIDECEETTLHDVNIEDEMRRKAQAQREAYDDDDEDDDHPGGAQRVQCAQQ

B1: GST-Metaxin (cytosolic domain, aa 1-191) (domain or fragment, Arabidopsis thaliana, UniProt O64471 1-191, looked up)
chain: MEGDQETNVYTLVARKPSFDLPTACPNCLPAYIYLKLAQLPFELAFNSTFPDSDELPYFESDTYVAYNNEDGGVIEKLKKDGIVNLDSQLQSLSDYLSLKALIVSWLEEALTYEIWVGTEGISTSKIYYSDLPWVISKVLFYKQTYLAKNRLGITKENAEQREKQIYKRASEAYEALSTRLGEQKFLFEDR
B1: binds (His+SUMO-atDjA2); binds (His+SUMO-atDjA1).

B2: GST-Tom9.2 (cytosolic domain, aa 1-53) (domain or fragment, Arabidopsis thaliana, UniProt Q9FNC9 1-53, looked up)
chain: MAAKRIGAGKSGGGDPNILARISNSEIVSQGRRAAGDAVEVSKKLLRSTGKAA
B2: binds (His+SUMO-atDjA1).

B3: GST-OM64 (cytosolic domain, aa 488-586) (domain or fragment, Arabidopsis thaliana, UniProt F4KCL7 488-586, looked up)
chain: SEVMKEKGNAAYKGKQWNKAVNFYTEAIKLNGANATYYCNRAAAFLELCCFQQAEQDCTKAMLIDKKNVKAYLRRGTARESLVRYKEAAADFRHALVLE
B3: binds (His+SUMO-atDjA2).
